Paper PMC10040528, “A [4Fe-4S] cluster resides at the active center of phosphomevalonate dehydratase, a key enzyme in the archaeal modified mevalonate pathway” (Frontiers in Microbiology, 2023)

T1: Aeropyrum pernix phosphomevalonate dehydratase (ApPMDh) large subunit Ape_2087.1, polyhistidine-tagged (Aeropyrum pernix, UniProt Q9YA51 1-402)
T1 construct: large subunit Ape_2087.1 of phosphomevalonate dehydratase (type IIb aconitase X), Aeropyrum pernix; also called (His)6-Ape2087.1; large subunit of ApPMDh; source: E. coli Rosetta2 (DE3), pET-HisApPMDh, co-expressed with Ape_2089; heat-treated cell extract, Histrap FF; not shown: polyhistidine ((His)6), N-terminal, kept
T1 sequence (looked up): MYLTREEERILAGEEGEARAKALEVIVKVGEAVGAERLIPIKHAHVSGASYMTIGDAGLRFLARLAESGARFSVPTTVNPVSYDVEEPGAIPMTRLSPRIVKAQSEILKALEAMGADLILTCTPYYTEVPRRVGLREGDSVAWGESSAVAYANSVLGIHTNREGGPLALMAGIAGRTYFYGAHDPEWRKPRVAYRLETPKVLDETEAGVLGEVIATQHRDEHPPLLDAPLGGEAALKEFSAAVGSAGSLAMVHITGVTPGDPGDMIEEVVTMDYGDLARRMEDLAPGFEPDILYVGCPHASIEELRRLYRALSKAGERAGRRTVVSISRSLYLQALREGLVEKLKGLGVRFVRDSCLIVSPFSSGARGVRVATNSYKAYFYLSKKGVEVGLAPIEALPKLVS

B1: ApPMDh (Aeropyrum pernix phosphomevalonate dehydratase) (Aeropyrum pernix K1) (protein)
chain 1: T1 sequence (looked up)
chain 2: MEVLRYRSRPIVGGEAEGPAVVIDSLSFYGEVDPETGVTSGGKPLAGRVAAIRRSRGSTVGSYVIYALKENGVAPLAILMERAEPIVIAGCVLAGIPLYDGLPPEFFERVRDGYRVRVHSDGLVEVLGPGQP
notes: N-terminal His6 tag with HRV3C site on large subunit, small subunit untagged; co-expressed in E. coli Rosetta2(DE3); 1:1 heteromeric complex; tag kept for kinetics, cut for EPR and iron assay; Fe-S cluster reconstituted anaerobically
B2: Aeropyrum pernix phosphomevalonate dehydratase (ApPMDh) small subunit Ape_2089, untagged (natural protein, UniProt Q9YA49 1-132, looked up)
chain: B1 chain 2
notes: small subunit Ape_2089 of phosphomevalonate dehydratase (type IIb aconitase X), Aeropyrum pernix; also called tag-free Ape_2089; small subunit of ApPMDh; source: E. coli Rosetta2 (DE3), co-expressed from pET-HisApPMDh (and expressed alone from pET-ApPMDh-S); heat-treated cell extract

Experiments:
[1] = substrate: C/C(=C\C(=O)O)CCOP(=O)(O)O; test: coupled colorimetric assay (MVA5P kinase/pyruvate kinase/pyruvate oxidase/peroxidase, resorufin), Michaelis-Menten fit; type: biochemical, Aeropyrum pernix; conditions: reverse reaction (hydration of tAHMP to MVA5P), 70 mM Tris-HCl pH 7.0, 70 °C, anaerobic, reconstructed His-tagged enzyme
Description: coupled colorimetric assay (MVA5P kinase/pyruvate kinase/pyruvate oxidase/peroxidase, resorufin), Michaelis-Menten fit on […]

[2] = target: T1, Aeropyrum pernix phosphomevalonate …; test: pull-down; as a1, but from a mixture of about equal amounts of cells co-expressing both subunits and cells expressing only untagged Ape_2089 (excess small subunit supplied); subunit ratio from SDS-PAGE and ImageJ; conditions: partners not purified
[3] = target: T1, Aeropyrum pernix phosphomevalonate …; test: pull-down; polyhistidine-tagged large subunit co-expressed with untagged small subunit in E. coli; heat-treated (60°C, 30 min) cell extract on Histrap FF, anaerobic; 20 mM sodium phosphate pH 7.4, 500 mM NaCl, 20 mM imidazole; eluted with 150 mM imidazole; subunit ratio from 15% SDS-PAGE and ImageJ; conditions: partners not purified

Row | Binder | Km [1] [µM] | kcat [1] [s⁻¹] | stoichiometry N [2] | stoichiometry N [3]
1 | B1 | 18.3 | 15.2 | – | –
2 | B2 | – | – | ~1 small subunit per large subunit | 1 small subunit per large subunit
